According to US20110142851A1 (EMERGENT PRODUCT DEVELOPMENT SEATTLE, published 2011):
Like-named read-outs stand apart in the source and are kept apart here.

T1: hu HIL6 Fc dimer (dimeric human HIL6/mouse IgG Fc fusion protein) (human)
T1 construct: also called human hyper-IL6 (IL6R-IL6-mIgG); dimeric HIL6
T1 chain: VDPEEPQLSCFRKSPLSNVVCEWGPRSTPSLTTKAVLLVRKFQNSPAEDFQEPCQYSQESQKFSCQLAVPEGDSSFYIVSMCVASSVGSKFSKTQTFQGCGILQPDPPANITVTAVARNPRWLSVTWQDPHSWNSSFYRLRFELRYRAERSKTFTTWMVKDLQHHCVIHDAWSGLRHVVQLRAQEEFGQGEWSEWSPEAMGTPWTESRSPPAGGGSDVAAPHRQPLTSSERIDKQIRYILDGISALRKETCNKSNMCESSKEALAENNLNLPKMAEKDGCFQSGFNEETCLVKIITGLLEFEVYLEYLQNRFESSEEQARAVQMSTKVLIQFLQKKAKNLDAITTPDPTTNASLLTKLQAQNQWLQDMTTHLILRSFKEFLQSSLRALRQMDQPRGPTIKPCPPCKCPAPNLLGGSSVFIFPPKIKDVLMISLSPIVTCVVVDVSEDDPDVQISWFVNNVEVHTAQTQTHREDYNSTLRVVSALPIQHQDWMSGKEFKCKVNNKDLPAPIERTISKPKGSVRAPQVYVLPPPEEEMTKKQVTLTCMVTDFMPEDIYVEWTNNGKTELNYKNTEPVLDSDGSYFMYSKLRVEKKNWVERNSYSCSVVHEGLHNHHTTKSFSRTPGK

T2: sIL6R Fc dimer (UniProt P08887 20-358, limits assumed)
T2 construct: not shown: Fc
T2 sequence (looked up): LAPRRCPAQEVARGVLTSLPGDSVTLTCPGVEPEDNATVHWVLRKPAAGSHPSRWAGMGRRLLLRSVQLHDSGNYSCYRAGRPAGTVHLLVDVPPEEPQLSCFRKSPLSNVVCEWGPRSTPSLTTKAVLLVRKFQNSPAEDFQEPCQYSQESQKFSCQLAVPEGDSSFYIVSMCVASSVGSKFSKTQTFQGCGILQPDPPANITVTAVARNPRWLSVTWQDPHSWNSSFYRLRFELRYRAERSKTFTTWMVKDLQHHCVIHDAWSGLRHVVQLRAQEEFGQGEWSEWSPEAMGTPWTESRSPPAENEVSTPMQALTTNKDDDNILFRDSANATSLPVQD

T3: hu HIL6 AFH monomer (human)
T3 chain: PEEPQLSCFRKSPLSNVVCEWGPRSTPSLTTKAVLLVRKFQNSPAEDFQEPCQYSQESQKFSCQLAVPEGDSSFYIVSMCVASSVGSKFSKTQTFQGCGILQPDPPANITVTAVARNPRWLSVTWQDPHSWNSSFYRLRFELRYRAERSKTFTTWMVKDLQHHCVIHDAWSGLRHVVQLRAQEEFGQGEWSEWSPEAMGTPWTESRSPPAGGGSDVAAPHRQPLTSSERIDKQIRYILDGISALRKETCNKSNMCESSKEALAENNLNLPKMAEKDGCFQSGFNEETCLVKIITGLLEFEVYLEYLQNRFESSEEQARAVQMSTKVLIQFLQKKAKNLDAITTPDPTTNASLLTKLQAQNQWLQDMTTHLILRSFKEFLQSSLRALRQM

B1: TRU(S6)-1019 (Fc fusion)
chain: EVQLLESGGGLVQPGGSLRLSCAASGFTFSWYLMHWVRQAPGKGLEWVSGIWPSGGHTLYADSVKGRFTISRDNSKNTLYLQMNSLRAEDTAVYYCAREPLLWFGELSYNWFDPWGQGTLVTVSSGGGGSGGGGSGGGGSQDIQMTQSPSSVSASVGDRVTITCRASQGISSWLAWYQQKPGKAPKLLIYAASSLQSGVPSRFSGSGSGTDFTLTISSLQPEDFATYYCQQANSFPLTFGGGTKVEIKTGEPKSSDKTHTCPPCPAPEAAGAPSVFLFPPKPKDTLMISRTPEVTCVVVDVSHEDPEVKFNWYVDGVEVHNAKTKPREEQYNSTYRVVSVLTVLHQDWLNGKAYACAVSNKALPAPIEKTISKAKGQPREPQVYTLPPSRDELTKNQVSLTCLVKGFYPSDIAVEWESNGQPENNYKTTPPVLDSDGSFFLYSKLTVDKSRWQQGNVFSCSVMHEALHNHYTQKSLSLSPGK
notes: SMIP (scFv - linker - CH2CH3)
B2: TRU(XT6)-1002 (Fc fusion)
chain: LPAQVAFTPYAPEPGSTCRLREYYDQTAQMCCSKCSPGQHAKVFCTKTSDTVCDSCEDSTYTQLWNWVPECLSCGSRCSSDQVETQACTREQNRICTCRPGWYCALSKQEGCRLCAPLRKCRPGFGVARPGTETSDVVCKPCAPGTFSNTTSSTDICRPHQICNVVAIPGNASMDAVCTSTSPTRSMAPGAVHLPQPVSTRSQHTQPTPEPSTAPSTSFLLPMGPSPPAEGSTGDTGEPKSSDKTHTCPPCPAPEAAGAPSVFLFPPKPKDTLMISRTPEVTCVVVDVSHEDPEVKFNWYVDGVEVHNAKTKPREEQYNSTYRVVSVLTVLHQDWLNGKAYACAVSNKALPAPIEKTISKAKGQPREPQVYTLPPSRDELTKNQVSLTCLVKGFYPSDIAVEWESNGQPENNYKTTPPVLDSDGSFFLYSKLTVDKSRWQQGNVFSCSVMHEALHNHYTQKSLSLSPGQRHNNSSLNTRTQKARHSPNSEVQLLESGGGLVQPGGSLRLSCAASGFTFSFYQMHWVRQAPGKGLEWVSGIYPSGGYTKYADSVKGRFTISRDNSKNTLYLQMNSLRAEDTAVYYCARDLGYGSSWYYFDYWGQGTLVTVSSGGGGSGGGGSGGGGSQSALTQPASVSGSPGQSITISCSGTDSDVGGYNHVSWYQQHPGKAPKLIIYDVDHRPSGISNRFSGSKSGNTASLTISGLQAEDEADYYCSSYRSGSTYVFGTGTKVTVL
notes: The entry holds a signal peptide that the mature protein lacks
B3: TRU(XT6)-1006 (Fc fusion)
chain: LPAQVAFTPYAPEPGSTCRLREYYDQTAQMCCSKCSPGQHAKVFCTKTSDTVCDSCEDSTYTQLWNWVPECLSCGSRCSSDQVETQACTREQNRICTCRPGWYCALSKQEGCRLCAPLRKCRPGFGVARPGTETSDVVCKPCAPGTFSNTTSSTDICRPHQICNVVAIPGNASMDAVCTSTSPTRSMAPGAVHLPQPVSTRSQHTQPTPEPSTAPSTSFLLPMGPSPPAEGSTGDTGEPKSSDKTHTCPPCPAPEAAGAPSVFLFPPKPKDTLMISRTPEVTCVVVDVSHEDPEVKFNWYVDGVEVHNAKTKPREEQYNSTYRVVSVLTVLHQDWLNGKAYACAVSNKALPAPIEKTISKAKGQPREPQVYTLPPSRDELTKNQVSLTCLVKGFYPSDIAVEWESNGQPENNYKTTPPVLDSDGSFFLYSKLTVDKSRWQQGNVFSCSVMHEALHNHYTQKSLSLSPGQRHNNSSLNTRTQKARHSPNSEVQLLESGGGLVQPGGSLRLSCAASGFTFSQYNMIWVRQAPGKGLEWVSWISSSGGTEYADSVKGRFTISRDNSKNTLYLQMNSLRAEDTAVYYCAKDRGYGSGSYGAYDAFDIWGQGTMVTVSSGGGGSGGGGSGGGGSQDIQMTQSPSSLSASVGDRVTITCQTSQSIDRYLNWYQQKAGEAPKLLIYAASSLQSGVPSRFSGSGSGTDFTLTISSLQPEDFASYYCQQSYRTPRTFGQGTKVEIK
notes: Xceptor, TNFRSF1B ectodomain N-terminal, anti-IL6xR domain C-terminal
B4: recombinant human soluble IL6 receptor (receptor)
chain: T2 sequence (looked up)
notes: also called sIL6R; sIL-6R

Experiments:
[1] = target: T4, recombinant human IL6 (human, UniProt P05231 30-212); assay: SPR Biacore T100, binder captured by anti-human Fc
T4 construct: also called rhIL6; IL6 monomer

[2] = target: T1, hu HIL6 Fc dimer (dimeric human …); assay: SPR Biacore T100, binder captured by anti-human Fc
Method: (§1) Binding affinities and kinetic rate constants of interaction of hyper-IL6 (HIL6; monomer or dimer), and its components IL6 and sIL6R, with different anti-HIL6 binding domains in scFv, SMIP, Xceptor and reverse Xceptor formats were determined using a Biacore® T100 instrument (GE Healthcare, Piscataway, N.J.).
(§2) Anti-HIL6 SMIPS, Xceptors, and reverse Xceptors were captured by a monoclonal mouse anti-human Fc, which was covalently conjugated to a carboxylmethyl dextran (CM4) surface via amines using N-ethyl-N′-(3-dimethylaminopropyl)-carbodiimide hydrochloride and N-hydroxysuccinimide. The unoccupied sites of the activated surface were blocked by ethanolamine. […] In every cycle, three different HIL6 binders were captured on flow cells 2, 3 and 4, while flow cell 1 was used as the reference cell. For each cycle, a single concentration of a single HIL6-related molecule was injected for 150 seconds at 35 microliters per minute, and then allowed to dissociate for 300 seconds. At the end of the cycle, the surface was regenerated gently using 3M MgCl₂, which dissociates protein bound to anti-hFc capture antibody. Multiple cycles were performed to study binding of monomeric or dimeric HIL6 at different concentrations, in the range of 0-100 nM, for each set of three HIL6 binders captured. […] The experiment was performed at 25° C. Signal associated with binding to the reference cell was used to subtract for bulk refractive changes and blank (buffer-only) injections were used to correct for drift and system noise. The kinetic parameters and affinities were determined using BIAevaluation software. Anti-HIL6 scFv molecules were analyzed in the reverse orientation using a dimeric human HIL6/mouse IgG Fc fusion protein captured by an immobilized rabbit polyclonal anti-mouse IgG Fc antibody on the surface and injecting different concentrations of scFv over the surface. For the HIL6 components IL6 (eBioscience, catalog no. 14-8069) and sIL6R, a single 100 nM injection was performed to obtain a qualitative assessment of binding.

[3] = target: T2, sIL6R Fc dimer; assay: SPR Biacore T100, binder captured by anti-human Fc
Method: as §1, §2

[4] = target: T3, hu HIL6 AFH monomer; assay: SPR Biacore T100, binder captured by anti-human Fc
Method: as §1, §2

[5] = target: T5, recombinant human TNF-α (human, UniProt P01375 77-233); assay: SPR Biacore T100, binder captured by anti-human Fc
T5 construct: also called rhTNFα
T5 sequence (P01375 77-233 limits assumed): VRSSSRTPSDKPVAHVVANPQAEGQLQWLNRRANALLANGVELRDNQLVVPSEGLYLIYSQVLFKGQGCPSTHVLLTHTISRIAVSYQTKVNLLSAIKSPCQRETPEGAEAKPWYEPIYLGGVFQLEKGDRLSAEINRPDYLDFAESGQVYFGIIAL

[6] = target: T1, hu HIL6 Fc dimer (dimeric human …); assay: SPR Biacore T100, binder captured by anti-human Fc
[7] = target: T2, sIL6R Fc dimer; assay: SPR Biacore T100, binder captured by anti-human Fc; remark: listed apart in the source
[8] = target: T3, hu HIL6 AFH monomer; assay: SPR Biacore T100, binder captured by anti-human Fc
[9] = target: B4; assay: ELISA, Xceptor captured by anti-human Fc
[10] = target: T5, recombinant human TNF-α; assay: sandwich ELISA, HIL-6 coated, Xceptor, then TNF-α
Method: The plate was covered, and incubated overnight at 4° C. […] The absorbance of each well was read at 450 nm.

[11] = target: T6, TRU(XT6)-1042; assay: ELISA, Xceptor captured by anti-human Fc
T6 construct: Xceptor, TNFRSF1B ectodomain N-terminal, anti-IL6xR domain C-terminal

Binder: B1
Kd [1]: 0.44 nM | Kd [2]: 2.7 nM | binding result [3]: no binding (tested: 100 nM) | Kd [4]: 2 nM

Binder: B2
Kd [5]: 0.0031 nM | Kd [6]: 61 nM | binding result [7]: no binding (tested: 100 nM) | Kd [8]: 4.9 nM | binding result [9]: no binding (tested: 75 pM sIL-6R)

Binder: B3
binding result [10]: binds

Binder: B4
binding result [11]: no binding (tested: 75 pM sIL-6R)
